In patent publication US20240398804:

Target: YAP1 Y357F (UniProt P46937)

Substance | YAP1 tyrosine phosphorylation (immunoprecipitation, immunoblot)
WT SRC (expressed from plasmid in 293T cells) | Under conditions where YES1 or SRC phosphorylated YAP1, we failed to detect phosphorylation of the YAP1 Y357F mutant
YES1 (Yamaguchi sarcoma viral oncogene homolog 1) | Under conditions where YES1 or SRC phosphorylated YAP1, we failed to detect phosphorylation of the YAP1 Y357F mutant
